Source: the supplement of paper PMC7877785
± gives the uncertainty stated by the source.

Experiment: self-splicing fitness, log relative to wild type (ln ratio); higher = more splicing; Tetrahymena group I intron in knt gene, E. coli kanamycin selection, DiMSum; sequences stand for … in CUCUCU…GGAGGGAAAAGUUAUCAGGCAUGCACCUGGUAGCUAGUCUUUAAACCAAUAGAUUGCAUCGGUUUAAAAGGCAAGACCGUCAAAUUGCGGGAAAGGGGUCAACAGCCGUUCAGUACCAAGUCUCAGGGGAAACUUUGAGAUGGCCUUGCAAAGGGUAUGGUAAUAAGCUGACGGACAUGGUCCUAACCACGCAGCCAAGUCCUAAGUCAACAGAUCUUCUGUUGAUAUGGAUGCAGUUCACAGACUAAAUGUCGGUCGGGGAAGAUGUAUUCUUCUCAUAAGAUAUAGUCGGACCUCUCCUUAAUGGGAGCUAGCGGAUGAAGUGAUGCAACACUGGAGCCGCUGGGAACUAAUUUGUAUGCGAAAGUAUAUUGAUUAGUUUUGGAGUACUCGUGGUCG
Summary of the method: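 Pooled colonies went to amplicon sequencing on an Illumina HiSeq 2500 after six replicate transformations. The plates were LB agar with 100 μg/mL carbenicillin, 50 μM IPTG and 0.2% rhamnose, with or without 25 μg/mL kanamycin, incubated overnight at 37°C or 30°C. The E. coli BL21(DE3) library had all eight P1ex-region intron nucleotides randomised, the intron placed in the knt kanamycin-resistance gene on pET-22b(+). DiMSum fitness is the error-weighted combination of replicate fold changes, kanamycin against none, normalised to wild type.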

Sequence | self-splicing fitness (ln) (30 °C) | self-splicing fitness (ln) (37 °C)
CAGGAGCAAUAUUACGGCGU | -3.11 ± 0.2 | -2.84 ± 0.28
CAGGAGCAAUAUUACGGCUA | -2.6 ± 0.19 | -1.34 ± 0.16
CAGGAGCAAUAUUACGGGUG | -1.64 ± 0.082 | -0.707 ± 0.08
CAGGAGCAAUAUUACGGUGG | -1.91 ± 0.14 | 0.146 ± 0.1
CAGGAGCAAUAUUACGUAAC | -3.33 ± 0.26 | -2.74 ± 0.32
CAGGAGCAAUAUUACGUAUC | -3.11 ± 0.23 | -3.54 ± 0.27
CAGGAGCAAUAUUACGUCAG | -3.88 ± 0.4 | -1.17 ± 0.28
CAGGAGCAAUAUUACGUCCU | -2.72 ± 0.24 | -2.08 ± 0.24
CAGGAGCAAUAUUACGUCUG | -2.47 ± 0.22 | 
CAGGAGCAAUAUUACGUGUG | -2.56 ± 0.13 | -0.614 ± 0.1
CAGGAGCAAUAUUACGUUCU | -4.15 ± 0.2 | -2.05 ± 0.14
CAGGAGCAAUAUUACGUUUC | -3.21 ± 0.28 | -3.11 ± 0.38
CAGUAGCAAUAUUACGACUA | 0.402 ± 0.089 | 0.675 ± 0.11
CAGUAGCAAUAUUACGAGUA | -2.34 ± 0.21 | -2.57 ± 0.31
CAGUAGCAAUAUUACGAGUG | -0.988 ± 0.052 | -0.603 ± 0.076
CAGUAGCAAUAUUACGAUAG | 0.00229 ± 0.079 | 0.167 ± 0.097
CAGUAGCAAUAUUACGCAAA |  | -3.33 ± 0.43
CAGUAGCAAUAUUACGCCAA | -2.85 ± 0.36 | -2.91 ± 0.31
CAGUAGCAAUAUUACGCUGG | -2.5 ± 0.17 | -1.34 ± 0.19
CAGUAGCAAUAUUACGGUCA |  | -1.71 ± 0.28
CAGUAGCAAUAUUACGUCAG | -0.873 ± 0.07 | 0.623 ± 0.095
CAGUAGCAAUAUUACGUCCG | -0.245 ± 0.24 | 1.29 ± 0.42
CAGUAGCAAUAUUACGUCGA | -3.45 ± 0.25 | -1.49 ± 0.17
CAGUAGCAAUAUUACGUCGC |  | -2.7 ± 0.4
CAGUAGCAAUAUUACGUUAU | -2.82 ± 0.24 | -1.37 ± 0.2

Sequence | self-splicing fitness (ln) (30 °C) | self-splicing fitness (ln) (37 °C)
CAGUAGCAAUAUUACGUUGA |  | -2.14 ± 0.16
CAUAAGCAAUAUUACGACAU | -3.64 ± 0.024 | -2.45 ± 0.037
CAUAAGCAAUAUUACGACGG | -0.41 ± 0.072 | -0.00998 ± 0.088
CAUAAGCAAUAUUACGAGGA | -3.13 ± 0.18 | -2.23 ± 0.21
CAUAAGCAAUAUUACGAGUU | -3.62 ± 0.29 | -1.82 ± 0.14
CAUAAGCAAUAUUACGAUUG | -2.62 ± 0.095 | -1.27 ± 0.11
CAUAAGCAAUAUUACGCAUA | -2.48 ± 0.18 | -1.71 ± 0.24
CAUAAGCAAUAUUACGCGAA | -2.82 ± 0.25 | -2.59 ± 0.34
CAUAAGCAAUAUUACGCGCA | -1.4 ± 0.11 | -0.55 ± 0.11
CAUAAGCAAUAUUACGCUGA | -2.49 ± 0.21 | -2.62 ± 0.28
CAUAAGCAAUAUUACGCUUA | -3.59 ± 0.29 | -2.65 ± 0.26
CAUAAGCAAUAUUACGGCAG | 0.0468 ± 0.075 | -0.545 ± 0.089
CAUAAGCAAUAUUACGGCCU | -3.3 ± 0.37 | -2.79 ± 0.4
CAUAAGCAAUAUUACGGGAC | -1.54 ± 0.18 | -2.23 ± 0.27
CAUAAGCAAUAUUACGGGCG | -0.054 ± 0.08 | 0.166 ± 0.092
CAUAAGCAAUAUUACGGGCU |  | -2.73 ± 0.25
CAUAAGCAAUAUUACGGGGU | -4.17 ± 0.19 | -2.46 ± 0.15
CAUAAGCAAUAUUACGGUUC | -3.7 ± 0.17 | -3.08 ± 0.19
CAUAAGCAAUAUUACGUCCU | -3.78 ± 0.27 | -3.15 ± 0.19
CAUAAGCAAUAUUACGUGUG | -3.56 ± 0.15 | -2.94 ± 0.17
CAUAAGCAAUAUUACGUUAG | -1.13 ± 0.083 | -0.61 ± 0.11
CAUAAGCAAUAUUACGUUAU | -4.62 ± 0.3 | -2.58 ± 0.16
CAUAAGCAAUAUUACGUUCC | -3.94 ± 0.32 | 
CAUCAGCAAUAUUACGAAUA | -1.48 ± 0.23 | -0.645 ± 0.17
CAUCAGCAAUAUUACGACUA | -1.26 ± 0.13 | -0.0399 ± 0.13

Sequence | self-splicing fitness (ln) (30 °C) | self-splicing fitness (ln) (37 °C)
CAUCAGCAAUAUUACGAGCC | -3.22 ± 0.31 | -2.33 ± 0.41
CAUCAGCAAUAUUACGAGGA | -3.13 ± 0.23 | -2.6 ± 0.19
CAUCAGCAAUAUUACGAUGC | -4.35 ± 0.36 | -2.76 ± 0.33
CAUCAGCAAUAUUACGCACC | -3.56 ± 0.14 | -1.61 ± 0.12
CAUCAGCAAUAUUACGCAGC | -3.35 ± 0.14 | -1.29 ± 0.12
CAUCAGCAAUAUUACGCCCU | -2.55 ± 0.36 | -1.54 ± 0.43
CAUCAGCAAUAUUACGCCGG | -0.415 ± 0.086 | -0.327 ± 0.11
CAUCAGCAAUAUUACGCGGU | -3.35 ± 0.18 | -2.39 ± 0.22
CAUCAGCAAUAUUACGCUCG | -0.495 ± 0.064 | -0.134 ± 0.079
CAUCAGCAAUAUUACGCUGC |  | -2.61 ± 0.3
CAUCAGCAAUAUUACGCUUU | -2.23 ± 0.097 | -1.34 ± 0.1
CAUCAGCAAUAUUACGGCCU | -3.29 ± 0.16 | -2.15 ± 0.16
CAUCAGCAAUAUUACGGGGC | -4 ± 0.16 | -2.01 ± 0.15
CAUCAGCAAUAUUACGUAUG | -2.16 ± 0.14 | -1.43 ± 0.15
CAUCAGCAAUAUUACGUCCA | -1.71 ± 0.12 | -2.92 ± 0.22
CAUCAGCAAUAUUACGUCGC | -3.05 ± 0.18 | -2.11 ± 0.23
CAUCAGCAAUAUUACGUCUG | -0.675 ± 0.047 | 0.264 ± 0.059
CAUCAGCAAUAUUACGUGCA | -3.14 ± 0.21 | -1.97 ± 0.2
CAUCAGCAAUAUUACGUGCG | -0.149 ± 0.056 | 0.355 ± 0.075
CAUCAGCAAUAUUACGUUAG | -0.472 ± 0.073 | -0.526 ± 0.08
CAUGAGCAAUAUUACGAAUU | -4.16 ± 0.35 | -2.49 ± 0.23
CAUGAGCAAUAUUACGCAGC | -3.08 ± 0.38 | -2.32 ± 0.34
CAUGAGCAAUAUUACGCAUC | -2.04 ± 0.31 | -2.41 ± 0.33
CAUGAGCAAUAUUACGCCCA | -1.49 ± 0.42 | 
CAUGAGCAAUAUUACGCCGU | -3.93 ± 0.37 | -3.36 ± 0.26

Sequence | self-splicing fitness (ln) (30 °C) | self-splicing fitness (ln) (37 °C)
CAUGAGCAAUAUUACGCGAG | -2.19 ± 0.14 | -1.47 ± 0.18
CAUGAGCAAUAUUACGCGUC |  | -2.76 ± 0.31
CAUGAGCAAUAUUACGCUAU | -3.46 ± 0.3 | -1.99 ± 0.21
CAUGAGCAAUAUUACGGAGA | -3.91 ± 0.35 | -2.58 ± 0.48
CAUGAGCAAUAUUACGGAUU | -3.76 ± 0.21 | -2.52 ± 0.26
CAUGAGCAAUAUUACGGCGG | -0.18 ± 0.094 | -0.278 ± 0.14
CAUGAGCAAUAUUACGGCGU | -3.61 ± 0.47 | -1.97 ± 0.34
CAUGAGCAAUAUUACGGGAA |  | -1.66 ± 0.25
CAUGAGCAAUAUUACGGGCC |  | -1.98 ± 0.36
CAUGAGCAAUAUUACGGGCU | -3.53 ± 0.16 | -2.11 ± 0.15
CAUGAGCAAUAUUACGGUAA |  | -2.65 ± 0.34
CAUGAGCAAUAUUACGUACU | -3.25 ± 0.18 | -2.59 ± 0.18
CAUGAGCAAUAUUACGUCAU | -3.61 ± 0.24 | -1.24 ± 0.22
CAUGAGCAAUAUUACGUCUC | -2.83 ± 0.22 | 
CAUGAGCAAUAUUACGUGUC | -2.98 ± 0.17 | -1.82 ± 0.22
CAUUAGCAAUAUUACGAAGG | -1.09 ± 0.089 | -0.624 ± 0.099
CAUUAGCAAUAUUACGACAA | -2.37 ± 0.24 | -2.09 ± 0.32
CAUUAGCAAUAUUACGACCA | -2.56 ± 0.42 | -1.67 ± 0.37
CAUUAGCAAUAUUACGAGAC | -3.15 ± 0.46 | -1.57 ± 0.42
CAUUAGCAAUAUUACGAGAU | -4.04 ± 0.46 | -2.9 ± 0.24
CAUUAGCAAUAUUACGAGCG | 0.0198 ± 0.086 | 0.256 ± 0.098
CAUUAGCAAUAUUACGAGGG | -3.1 ± 0.18 | -2 ± 0.21
CAUUAGCAAUAUUACGAGGU | -3.01 ± 0.27 | -2.66 ± 0.3
CAUUAGCAAUAUUACGAUGG | -0.461 ± 0.076 | 0.0641 ± 0.083
